Laboratory results reported in the nanobody polyreactivity screen of Harvey et al. (2022).

Assay: yeast display, Sf9 membrane polyspecificity reagent, FACS + sequencing; frameworks hold sequencing errors
Method in brief: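 Polyreactivity labels are assigned by the sorting gate from which each nanobody was recovered. The gates were low and high (top ~1%), set on anti-HA fluorescence for expression and streptavidin fluorescence for reagent binding. Before sorting, galactose-induced (36–48 hours) yeast display cells were stained for 1 hour at 4 °C with 10% biotinylated, detergent-solubilized Sf9 membrane reagent.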

In the case of “QVQLVESGGGLVQAGGSLRLSCAASGSIFGRYAMGWYRQAPGKEREFVSAISSSGGRTYYADSVKGRFPISRDNAKNTVYLQMNSLKPEDTAVYYCATEGYYSRTRLYLEYDYWGQGTQVTVSS”, the “polyreactivity (PSR sort gate)” value is reported as “high polyreactivity”.
For “QVQLVESGGGLVQAGGSLRLSCAASGSIFGRYAMGWYRQAPGKERELVAAISRTGVSTYYADSVKGRFTISRDNAKNTVYLQMKSLKTEDSAVYYCKAVRLSWQYTYYYWGQGTQVTVSS”, the “polyreactivity (PSR sort gate)” value was “high polyreactivity”.
With “QVQLVESGGGLVQAGGSLRLSCAASGSIFGRYAMGWYRQAPGKERELVAAITFSGASTYYADSVKGRFTISRDNAKNTVYLQMNSLKPEDTAVYYCAADGGTIEGDYWGQGTQVTVSS” the “polyreactivity (PSR sort gate)” value was “low polyreactivity”.
With “QVQLVESGGGLVQAGGSLRLSCAASGSIFGRYAMGWYRQAPGKERELVAAITGSGGTTYYADSVKGRFTISRDNAKNTVYLQMNSLKPEDTAVYYCAADPQVYYSGRPRYDYWGQGTQVTVSS” the “polyreactivity (PSR sort gate)” value was “high polyreactivity”.
For “QVQLVESGGGLVQAGGSLRLSCAASGSIFGRYAMGWYRQAPGKERELVAVITSGGSTNYADSVKGRFTISRDKAKNTVYLQMNSLKPEDTAVYYCAVRPYELHRLADQPGGDDYWGQGTQVTVSS”, the “polyreactivity (PSR sort gate)” value was “low polyreactivity”.
With “QVQLVESGGGLVQAGGSLRLSCAASGSIFGRYAMGWYRQAPGNERELVAGICSRGTSTYYADSVKGRFTISRDNAKNTVYLQMNSLKPEDTAVYYCNAYPYYIVGSRYDYWGQGTQVTVSS” the “polyreactivity (PSR sort gate)” value was “high polyreactivity”.
For “QVQLVESGGGLVQAGGSLRLSCAASGSIFGRYGAMGWYRQAPGKERELVAAIRTSGVSTYYADSVKGRFTISRDNAKNTVYLQMNSLKPEDTAVYYCAKGYNSYNLGKYGYWGQGTQVTVSS”, the “polyreactivity (PSR sort gate)” value was “low polyreactivity”.
In the case of “QVQLVESGGGLVQAGGSLRLSCAASGSIFGRYGMGWYRQAPGKERELVAAITSGTRTNYADSVKGRFTISRDNAKNTVYLQMNSLKPEDTAVYYCNALRLRGNYEYGYWGHGTQVTVSS”, the “polyreactivity (PSR sort gate)” value is reported as “low polyreactivity”.
With “QVQLVESGGGLVQAGGSLRLSCAASGSIFGSNAMGWYRQAPGKERELVAAITESGGDTYYADSVKGRFTISRDNAKNTVYLQMNSLKPEDTAVYYCAARYFGVIVDVSLFREYGSWGQGTQVTVSS” the “polyreactivity (PSR sort gate)” value was “low polyreactivity”.
With “QVQLVESGGGLVQAGGSLRLSCAASGSIFGSYAMGWYRPAPGKERELVAAITIADITYYADSVKGRFTISRDNAKNTVYLQMNSLKPEDTAVYYCAAPYSPLWYPGGDYWRQGTQVTVSS” the “polyreactivity (PSR sort gate)” value was “low polyreactivity”.
For “QVQLVESGGGLVQAGGSLRLSCAASGSIFGSYAMGWYRQAPGKERELVAAITYSGTSTYYADSVKGRFTISRDNAKNTVYLQMNSLKPEDTAVYYCNAVSRHRSKFDYWGQGTQVTVSS”, the “polyreactivity (PSR sort gate)” value was “high polyreactivity”.
With “QVQLVESGGGLVQAGGSLRLSCAASGSIFGSYAMGWYRQAPGKERELVAVITSSGNTKYADSVKGRFTISRDNAKNTVYLQMNSLKPEDTAVYYCAARFITWGSQYSFRSMDYWGQGTQVTVSS” the “polyreactivity (PSR sort gate)” value was “high polyreactivity”.
For “QVQLVESGGGLVQAGGSLRLSCAASGSIFGSYAMGWYRQGAGKERELVAGITYDGGSTYYADSVKGRFTISRDNAKNTVYLQMNSLKPEDTAVYYCAAVDIRLEWDFWFQPTYEYWGQGTQVTVSS”, the “polyreactivity (PSR sort gate)” value was “low polyreactivity”.
With “QVQLVESGGGLVQAGGSLRLSCAASGSIFGTNAMGGYRQAPGKERELVAAIRGSGGRTYYADSVKGRFTISRDKAKNTVYLEMNSLKPEDSAVYYCAAPGNPYCWGYNYYYWGQGTQVTVSS” the “polyreactivity (PSR sort gate)” value was “high polyreactivity”.
In the case of “QVQLVESGGGLVQAGGSLRLSCAASGSIFGTNAMGWYRQAPGKERELVAAIRGSGGRTYYADSVKGRFTISRDNAKNTVYLQMNSLKPEDTAVYYCAARWGPYYGGVRYGYWGQGTQVTVSS”, the “polyreactivity (PSR sort gate)” value is reported as “high polyreactivity”.
For “QVQLVESGGGLVQAGGSLRLSCAASGSIFGTNVMGWYRQAPGKERELVAAITASGSRTYYADSVKGRFTISRDNAKNTVYLQMNSLKPEDTAVYYCATVSRFGFKDFDYWGQGTQVTVSS”, the “polyreactivity (PSR sort gate)” value was “high polyreactivity”.
In the case of “QVQLVESGGGLVQAGGSLRLSCAASGSIFGTYAKGWYRQAPGKERELVADISLSGGSTYYADSVKGRFTISRDTAKKSVYLQMNSLKPEDNAVYYCNAESTAYGYVAVYRYDYWGQGTQVTVSS”, the “polyreactivity (PSR sort gate)” value is reported as “low polyreactivity”.
In the case of “QVQLVESGGGLVQAGGSLRLSCAASGSIFGTYAMGWYRQAPGKERELVAAITGRDGITYADSVKGRFTISCDNAKNTVYLQMNSLKPEDTAVYYCAAVSHGVYYQYRRRYYSWGQGTQVTVSS”, the “polyreactivity (PSR sort gate)” value is reported as “high polyreactivity”.
With “QVQLVESGGGLVQAGGSLRLSCAASGSIFGTYAMGWYRQAPGKERELVAAITGSGGRTYYADSVKGRFTISRDNAKNTVYLQLNSLKPEDTAVYYCNKVVYVRSYPPRYDYWGQGTQVTVSS” the “polyreactivity (PSR sort gate)” value was “high polyreactivity”.
With “QVQLVESGGGLVQAGGSLRLSCAASGSIFGTYAMGWYRQAPGKERELVARISGGGSTYYADSVKGRFTISRDNAKNTVYLQMNSLKPEDTAVYYCNVRKWAYCSHAIIYNYWGQGTQVTVSS” the “polyreactivity (PSR sort gate)” value was “high polyreactivity”.
With “QVQLVESGGGLVQAGGSLRLSCAASGSIFGTYAMGWYRQAPGKEREMVARITSGGSTNYADSVKGRFTISRDNAKNTVFLQMNSLKPEDTAVYYCAARQYHWYLPSYWYRYDYWGQGTLVTVSS” the “polyreactivity (PSR sort gate)” value was “high polyreactivity”.
In the case of “QVQLVESGGGLVQAGGSLRLSCAASGSIFGVNAMGWYRQAPGKERELVADITKSTGDTYADSVKGRFTISRDNAKNTVYLQMNSLKPEDTAVYYCNARFTVKQKRLYLYDYWGQGTQVTVSS”, the “polyreactivity (PSR sort gate)” value is reported as “low polyreactivity”.
With “QVQLVESGGGLVQAGGSLRLSCAASGSIFGVNYMGWYRQAPGKERELVAGLSSSGGSTYYADSVKGRFTISRDNAKNTVYLQMNSLKPEDTAVYDCAATQSRYYSDDPYYYWGQGTQVTVSS” the “polyreactivity (PSR sort gate)” value was “low polyreactivity”.
With “QVQLVESGGGLVQAGGSLRLSCAASGSIFGVYAMGWYRQAPGKERELVAAISWSGTSTYYADSVKGRFTISRDNAKNTVYLQMNSLKPEDTAVYYCNGDWVLDGYDYDSWGQGTQVTVSS” the “polyreactivity (PSR sort gate)” value was “low polyreactivity”.
With “QVQLVESGGGLVQAGGSLRLSCAASGSIFGVYTMGWYRQAPGKERELVAAITRSGGSTYYADSVKGRFTISRDNAKNTVYLQMNSLKPEDTAVYYCAARRAYVWCSQGYAHFEYWGQGTQVTVSS” the “polyreactivity (PSR sort gate)” value was “high polyreactivity”.
For “QVQLVESGGGLVQAGGSLRLSCAASGSIFGWYAMGWYRQAPGKDWELVAASRRGGSTNYADSVKGRFTISRDNAKNTVYFQMNSLIPEATAVYYCAAGKSGYSKRIFRYSFDYWGQGTQVTVSS”, the “polyreactivity (PSR sort gate)” value was “high polyreactivity”.
For “QVQLVESGGGLVQAGGSLRLSCAASGSIFGWYAMGWYRQAPGKERELVAAIDSATSTYYADSVKGRFTISRDNAKNTVYLQMNSLKPEDTAFYYCAAVQLYQKHQITYVAHEYWGQGTQVTVSS”, the “polyreactivity (PSR sort gate)” value was “low polyreactivity”.
With “QVQLVESGGGLVQAGGSLRLSCAASGSIFGWYAMGWYRQAPGKERELVATISSGGGNTYYADSVKGRFTISRDNAKNTVYLQMNSLKPEDTAVYYCAADRTFYGIRFDYWGQGTQVTVSS” the “polyreactivity (PSR sort gate)” value was “low polyreactivity”.
With “QVQLVESGGGLVQAGGSLRLSCAASGSIFGWYTMGWYRQAPGKERELVAAITWRGGTTYYADSVKGRFTISRDNAKNTVYLQMNSLKPEDTAVYYCATTRYPRSYQEFGYWGQGTQVTVSS” the “polyreactivity (PSR sort gate)” value was “high polyreactivity”.
In the case of “QVQLVESGGGLVQAGGSLRLSCAASGSIFGYNAMGWYRQAPGKEREFVAAINTSGGSTYYADSVKGSFTISRDNAKNTVYLQMYSLKPEATAVYYCAARAYSWISARYYWGLGTQVTVSS”, the “polyreactivity (PSR sort gate)” value is reported as “high polyreactivity”.
For “QVQLVESGGGLVQAGGSLRLSCAASGSIFGYNAMGWYRQAPGKERELVAAISLTTGSTYYADSVKGRFTISRDNAKNTVYLQMNCLKPEDTAVYYCAAVDADYYYWGQGTQVTVSS”, the “polyreactivity (PSR sort gate)” value was “high polyreactivity”.
In the case of “QVQLVESGGGLVQAGGSLRLSCAASGSIFGYNAMGWYRQAPGKERELVAAITSSGGSTYNADSVKGRFTISRDNAKNTVYLQMNSLKPEDTAFYYCNSRDWYIVWYDYWGQGTQVTVSS”, the “polyreactivity (PSR sort gate)” value is reported as “low polyreactivity”.
With “QVQLVESGGGLVQAGGSLRLSCAASGSIFGYNDMGWYRQAPGKERELVATITWGGGRTRYADSVKGRFTISRDNAKNTVYFQMNSLKPEDTAVYYCAAGYYRLWVRYDYWGQGTQVTVSS” the “polyreactivity (PSR sort gate)” value was “low polyreactivity”.
For “QVQLVESGGGLVQAGGSLRLSCAASGSIFGYNSMGWDRQAAGKERELVAAIYSGGNTYYADSVKGRFTISRDNAKNTVYLQMNSLKPEDTAVYYCAADGYDDSTSRWYEYWGQGSQVTVSS”, the “polyreactivity (PSR sort gate)” value was “low polyreactivity”.
In the case of “QVQLVESGGGLVQAGGSLRLSCAASGSIFGYNTMGWYRKAPGKERELVAAISYRGGSTSADSVKGRFSISRDNAKNTVYLQMNSRKPEDTAVYSCATRSIVGYRYSGYDYWGQATQVTVSS”, the “polyreactivity (PSR sort gate)” value is reported as “high polyreactivity”.
In the case of “QVQLVESGGGLVQAGGSLRLSCAASGSIFGYNTMGWYRQAPGKERELVAAISWNGGNTYYADSVKGRFTISRDNAKNTVYLQMNSLKPEDTEVYYCNARTRSRSRGFDSWGQGTQVTVSS”, the “polyreactivity (PSR sort gate)” value is reported as “high polyreactivity”.
With “QVQLVESGGGLVQAGGSLRLSCAASGSIFGYNVMGWYRQAPGKERELVATISSSGGTNYADSVKGRFTISRDNAKNTVYLQMNSLKPEDTAVYYCNADVLDGGYDYWGQGTQVTVSS” the “polyreactivity (PSR sort gate)” value was “low polyreactivity”.
In the case of “QVQLVESGGGLVQAGGSLRLSCAASGSIFGYSAMGWYRQAPGKERELVAAIDSGGSTYYADSVKGRFTISRDNAKNTVYLQMNSLKPQDTAVYYCAAGVSSFSPYDSWGQGTQVTVSS”, the “polyreactivity (PSR sort gate)” value is reported as “low polyreactivity”.
With “QVQLVESGGGLVQAGGSLRLSCAASGSIFGYYAMGWYRQAPGKERELVAAISGIGGSTYYADSVKGRFTISRDNAKNTVYLQMNSLKPEDTAVYYCAKARPHVGGGGDYWGQGTQVTVSS” the “polyreactivity (PSR sort gate)” value was “low polyreactivity”.
In the case of “QVQLVESGGGLVQAGGSLRLSCAASGSIFGYYAMGWYRQAPGKERELVAAISGSGGSTYYADSVKGRFTISRDNAKYTVYLQMNRLKPEDTAVYYCAAAYHGRHYYWGQGTQVTVSS”, the “polyreactivity (PSR sort gate)” value is reported as “high polyreactivity”.
In the case of “QVQLVESGGGLVQAGGSLRLSCAASGSIFGYYAMGWYRQAPGKERELVADITVRGGSTYYADSVNGRFTISRDNAKNTVYLQMNSLKPEDTAVYYCAKRFKYIYYWGQGTQVTVSS”, the “polyreactivity (PSR sort gate)” value is reported as “high polyreactivity”.
With “QVQLVESGGGLVQAGGSLRLSCAASGSIFGYYAMGWYRQAPGKERELVASITRSGGSTYYADSVKGRFTISRDNAKNTVYLQMNSLQPEDTAVYYCAVARYRHGRSGTYDVTGEYWGQGTQVTVSS” the “polyreactivity (PSR sort gate)” value was “high polyreactivity”.
With “QVQLVESGGGLVQAGGSLRLSCAASGSIFGYYTKVWYRQARGKEREFVAAINTSGGSTYADSVKGRCTISRDNAKNTVYLQMNSLKPEDTAVYYCAADGYYEYTWGEYDSWGQGTQVTVSS” the “polyreactivity (PSR sort gate)” value was “low polyreactivity”.
